From patent US8158376B2, “Bisubstrate fluorescent probe binding to protein kinases” (University of Tartu, priority 2006, dated 2012)
Where two headings read alike, the source gives them in different places.

How the values were obtained:
Test in all cases: Kinase selectivity panel
Assay type in all cases: biochemical
[1] = target: T1, PRAK (Homo sapiens, UniProt Q8IW41); conditions: read-out: residual activity (%) PRAK
T1 sequence (Q8IW41 1-473): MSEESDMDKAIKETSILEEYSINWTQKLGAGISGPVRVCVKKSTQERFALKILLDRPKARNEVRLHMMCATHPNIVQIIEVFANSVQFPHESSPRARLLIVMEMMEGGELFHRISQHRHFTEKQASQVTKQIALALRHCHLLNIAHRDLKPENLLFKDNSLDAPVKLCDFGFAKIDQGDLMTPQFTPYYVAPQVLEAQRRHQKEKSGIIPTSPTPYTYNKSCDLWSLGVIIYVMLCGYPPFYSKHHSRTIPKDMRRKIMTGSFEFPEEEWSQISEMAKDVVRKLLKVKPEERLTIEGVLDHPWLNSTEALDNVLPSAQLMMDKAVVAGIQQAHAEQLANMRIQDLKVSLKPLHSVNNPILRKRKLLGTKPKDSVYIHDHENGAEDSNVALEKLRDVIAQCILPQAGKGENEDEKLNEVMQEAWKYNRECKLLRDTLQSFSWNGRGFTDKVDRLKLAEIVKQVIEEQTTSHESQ
Method: (§1) The panel of kinases included all 52 kinases available for testing.
(§2) The assay of protein kinases was performed at 30° C. as described previously [Davies et al., Biochem. J. 351 (2000) 95; Murray et al., Biochem. J. 384 (2004) 477].

[2] = target: MKK1 (Homo sapiens, UniProt Q02750); conditions: read-out: residual activity (%) MKK1
Sequence of MKK1 (Q02750 whole entry, species assumed): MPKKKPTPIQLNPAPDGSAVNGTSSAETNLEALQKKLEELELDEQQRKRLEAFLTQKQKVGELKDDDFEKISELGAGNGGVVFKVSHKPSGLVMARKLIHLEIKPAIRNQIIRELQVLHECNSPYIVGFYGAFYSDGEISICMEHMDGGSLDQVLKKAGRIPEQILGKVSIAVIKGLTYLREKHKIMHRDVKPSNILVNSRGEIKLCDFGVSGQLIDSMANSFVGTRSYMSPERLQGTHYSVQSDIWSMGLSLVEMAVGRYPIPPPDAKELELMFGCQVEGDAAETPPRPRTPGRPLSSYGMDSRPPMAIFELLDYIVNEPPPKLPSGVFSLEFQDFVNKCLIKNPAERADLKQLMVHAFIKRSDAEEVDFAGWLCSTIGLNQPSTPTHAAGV
Method: as §1, §2

[3] = target: CSK (Homo sapiens, UniProt P41240); conditions: read-out: residual activity (%) CSK
Sequence of CSK (P41240 whole entry, species assumed): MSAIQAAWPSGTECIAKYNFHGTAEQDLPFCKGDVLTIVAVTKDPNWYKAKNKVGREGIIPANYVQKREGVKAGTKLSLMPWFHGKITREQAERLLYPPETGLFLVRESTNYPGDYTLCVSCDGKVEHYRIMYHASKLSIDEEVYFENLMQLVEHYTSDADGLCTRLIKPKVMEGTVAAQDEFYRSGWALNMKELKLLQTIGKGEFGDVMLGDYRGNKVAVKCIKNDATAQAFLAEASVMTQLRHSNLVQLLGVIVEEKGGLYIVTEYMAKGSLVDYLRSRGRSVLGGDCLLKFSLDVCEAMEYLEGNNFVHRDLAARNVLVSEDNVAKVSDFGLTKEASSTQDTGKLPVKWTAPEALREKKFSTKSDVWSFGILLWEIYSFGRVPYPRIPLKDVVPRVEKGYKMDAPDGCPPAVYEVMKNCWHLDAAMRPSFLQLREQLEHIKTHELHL
Method: as §1, §2

[4] = target: MNK2 (Homo sapiens, UniProt Q9HBH9); conditions: read-out: residual activity (%) MNK2
Sequence of MNK2 (Q9HBH9 whole entry, species assumed): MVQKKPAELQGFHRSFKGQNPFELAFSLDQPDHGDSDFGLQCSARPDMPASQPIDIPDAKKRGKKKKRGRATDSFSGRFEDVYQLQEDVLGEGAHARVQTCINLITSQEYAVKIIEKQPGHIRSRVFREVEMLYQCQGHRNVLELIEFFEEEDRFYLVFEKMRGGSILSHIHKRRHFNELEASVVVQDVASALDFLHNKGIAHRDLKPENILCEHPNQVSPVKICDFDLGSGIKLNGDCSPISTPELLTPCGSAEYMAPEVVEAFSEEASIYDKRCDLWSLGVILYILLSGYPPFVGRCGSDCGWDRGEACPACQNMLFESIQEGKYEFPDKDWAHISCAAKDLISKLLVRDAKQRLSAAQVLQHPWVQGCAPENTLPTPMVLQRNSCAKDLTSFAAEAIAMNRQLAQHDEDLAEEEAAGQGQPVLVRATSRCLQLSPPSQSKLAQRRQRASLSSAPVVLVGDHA
Method: as §1, §2

[5] = target: GSK3b (Homo sapiens, UniProt P49841); conditions: read-out: residual activity (%) GSK3b
Sequence of GSK3b (P49841 whole entry, species assumed): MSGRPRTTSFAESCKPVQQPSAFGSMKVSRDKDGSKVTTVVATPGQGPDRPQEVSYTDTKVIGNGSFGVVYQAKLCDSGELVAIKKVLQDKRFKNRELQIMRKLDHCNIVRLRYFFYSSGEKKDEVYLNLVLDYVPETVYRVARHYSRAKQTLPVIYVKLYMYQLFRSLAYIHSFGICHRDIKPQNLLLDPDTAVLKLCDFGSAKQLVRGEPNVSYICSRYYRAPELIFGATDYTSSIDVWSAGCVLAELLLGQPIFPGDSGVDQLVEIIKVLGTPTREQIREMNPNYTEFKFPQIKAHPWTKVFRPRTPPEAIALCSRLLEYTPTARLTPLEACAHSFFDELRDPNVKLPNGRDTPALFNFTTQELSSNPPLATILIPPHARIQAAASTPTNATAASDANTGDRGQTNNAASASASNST
Method: as §1, §2

[6] = target: PRK2 (Homo sapiens, UniProt Q16513); conditions: read-out: residual activity (%) PRK2
Sequence of PRK2 (Q16513 whole entry, species assumed): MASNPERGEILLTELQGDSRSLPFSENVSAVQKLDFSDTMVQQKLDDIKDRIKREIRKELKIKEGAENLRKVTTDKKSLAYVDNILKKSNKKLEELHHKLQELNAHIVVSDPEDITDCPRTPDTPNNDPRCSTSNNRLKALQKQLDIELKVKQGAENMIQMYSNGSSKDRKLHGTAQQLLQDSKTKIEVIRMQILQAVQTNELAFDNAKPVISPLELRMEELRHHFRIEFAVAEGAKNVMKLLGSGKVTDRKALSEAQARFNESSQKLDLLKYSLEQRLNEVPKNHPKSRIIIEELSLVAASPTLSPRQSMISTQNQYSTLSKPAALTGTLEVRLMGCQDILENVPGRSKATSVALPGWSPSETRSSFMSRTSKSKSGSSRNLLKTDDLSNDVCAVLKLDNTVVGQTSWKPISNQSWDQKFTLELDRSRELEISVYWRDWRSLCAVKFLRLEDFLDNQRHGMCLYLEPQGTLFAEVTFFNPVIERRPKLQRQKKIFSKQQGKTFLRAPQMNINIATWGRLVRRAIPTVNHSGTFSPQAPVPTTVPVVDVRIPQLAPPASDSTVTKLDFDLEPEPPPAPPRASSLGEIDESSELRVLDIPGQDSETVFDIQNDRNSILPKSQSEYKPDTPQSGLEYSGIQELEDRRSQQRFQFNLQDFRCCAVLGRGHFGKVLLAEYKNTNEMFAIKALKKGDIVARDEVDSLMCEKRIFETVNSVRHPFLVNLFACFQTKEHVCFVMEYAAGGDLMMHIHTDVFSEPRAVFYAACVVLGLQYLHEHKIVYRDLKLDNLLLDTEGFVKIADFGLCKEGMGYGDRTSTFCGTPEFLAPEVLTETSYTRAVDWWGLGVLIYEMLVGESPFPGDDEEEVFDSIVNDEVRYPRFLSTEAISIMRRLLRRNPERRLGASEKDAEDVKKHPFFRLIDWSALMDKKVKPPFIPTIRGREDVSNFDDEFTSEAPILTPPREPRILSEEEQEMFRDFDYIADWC
Method: as §1, §2

[7] = target: Src (Homo sapiens, UniProt P12931); conditions: read-out: residual activity (%) Src
Sequence of Src (P12931 whole entry, species assumed): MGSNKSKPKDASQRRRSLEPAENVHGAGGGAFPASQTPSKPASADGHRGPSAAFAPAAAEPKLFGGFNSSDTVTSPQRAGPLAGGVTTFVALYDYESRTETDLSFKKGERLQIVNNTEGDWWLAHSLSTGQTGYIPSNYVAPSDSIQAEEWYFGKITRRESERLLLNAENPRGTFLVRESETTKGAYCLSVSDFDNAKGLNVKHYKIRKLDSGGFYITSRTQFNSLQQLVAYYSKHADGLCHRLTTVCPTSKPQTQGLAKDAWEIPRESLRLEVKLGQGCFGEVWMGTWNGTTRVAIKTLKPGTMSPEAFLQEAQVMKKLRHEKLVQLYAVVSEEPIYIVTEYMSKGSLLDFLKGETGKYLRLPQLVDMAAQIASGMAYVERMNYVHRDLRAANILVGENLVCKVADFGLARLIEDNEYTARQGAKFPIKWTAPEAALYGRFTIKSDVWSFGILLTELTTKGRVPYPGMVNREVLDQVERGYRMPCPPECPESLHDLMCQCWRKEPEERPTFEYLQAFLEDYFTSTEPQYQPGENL
Method: as §1, §2

[8] = target: T2, IKKb (Homo sapiens, UniProt O14920); conditions: read-out: residual activity (%) IKKb
T2 sequence (O14920 1-756): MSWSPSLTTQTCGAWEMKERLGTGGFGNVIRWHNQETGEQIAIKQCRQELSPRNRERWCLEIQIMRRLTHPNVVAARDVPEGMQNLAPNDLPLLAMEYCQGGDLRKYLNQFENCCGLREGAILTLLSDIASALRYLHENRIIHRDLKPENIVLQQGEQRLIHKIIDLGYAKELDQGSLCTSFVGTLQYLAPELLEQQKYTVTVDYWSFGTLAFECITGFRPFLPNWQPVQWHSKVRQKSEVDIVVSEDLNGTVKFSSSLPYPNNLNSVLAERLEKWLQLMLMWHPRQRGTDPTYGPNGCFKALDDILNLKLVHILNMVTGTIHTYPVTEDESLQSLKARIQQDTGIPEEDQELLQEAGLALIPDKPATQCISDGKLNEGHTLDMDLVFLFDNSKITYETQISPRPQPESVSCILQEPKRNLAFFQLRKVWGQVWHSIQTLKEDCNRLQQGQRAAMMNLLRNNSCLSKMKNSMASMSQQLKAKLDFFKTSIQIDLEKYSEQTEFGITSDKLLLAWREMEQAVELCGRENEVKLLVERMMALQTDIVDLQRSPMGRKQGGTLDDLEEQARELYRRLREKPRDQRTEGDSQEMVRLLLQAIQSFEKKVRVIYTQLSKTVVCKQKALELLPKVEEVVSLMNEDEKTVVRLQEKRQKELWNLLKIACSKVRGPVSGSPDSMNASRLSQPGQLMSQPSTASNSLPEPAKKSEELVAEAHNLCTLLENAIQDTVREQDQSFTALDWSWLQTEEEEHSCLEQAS
Method: as §1, §2

[9] = target: PIM2 (Homo sapiens, UniProt Q9P1W9); conditions: read-out: residual activity (%) PIM2
Sequence of PIM2 (Q9P1W9 whole entry, species assumed): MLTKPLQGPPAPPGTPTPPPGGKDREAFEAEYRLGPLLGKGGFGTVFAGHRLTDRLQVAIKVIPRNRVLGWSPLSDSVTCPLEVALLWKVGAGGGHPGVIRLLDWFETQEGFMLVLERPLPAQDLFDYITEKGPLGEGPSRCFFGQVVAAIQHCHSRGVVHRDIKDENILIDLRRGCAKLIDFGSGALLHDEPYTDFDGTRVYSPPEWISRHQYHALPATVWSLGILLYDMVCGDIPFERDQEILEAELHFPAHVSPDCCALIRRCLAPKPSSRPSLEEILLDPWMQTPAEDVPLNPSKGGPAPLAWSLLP
Method: as §1, §2

[10] = target: PKBb (Homo sapiens, UniProt P31751); conditions: read-out: residual activity (%) PKBb
Sequence of PKBb (P31751 whole entry): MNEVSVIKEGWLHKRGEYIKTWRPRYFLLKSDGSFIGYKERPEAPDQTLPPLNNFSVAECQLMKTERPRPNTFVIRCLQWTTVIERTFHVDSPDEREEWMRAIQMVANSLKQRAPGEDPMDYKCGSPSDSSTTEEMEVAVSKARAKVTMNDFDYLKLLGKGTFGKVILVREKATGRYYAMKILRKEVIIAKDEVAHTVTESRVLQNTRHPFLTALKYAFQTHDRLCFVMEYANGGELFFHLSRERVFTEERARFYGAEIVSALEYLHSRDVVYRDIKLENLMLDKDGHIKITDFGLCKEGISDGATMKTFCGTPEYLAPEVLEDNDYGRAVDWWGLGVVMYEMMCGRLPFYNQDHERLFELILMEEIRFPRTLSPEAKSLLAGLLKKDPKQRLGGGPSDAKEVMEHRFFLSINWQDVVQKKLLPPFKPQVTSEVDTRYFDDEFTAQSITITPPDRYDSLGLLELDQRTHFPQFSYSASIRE
Method: as §1, §2

[11] = target: PLK1 (Homo sapiens, UniProt P53350); conditions: read-out: residual activity (%) PLK1
Sequence of PLK1 (P53350 whole entry, species assumed): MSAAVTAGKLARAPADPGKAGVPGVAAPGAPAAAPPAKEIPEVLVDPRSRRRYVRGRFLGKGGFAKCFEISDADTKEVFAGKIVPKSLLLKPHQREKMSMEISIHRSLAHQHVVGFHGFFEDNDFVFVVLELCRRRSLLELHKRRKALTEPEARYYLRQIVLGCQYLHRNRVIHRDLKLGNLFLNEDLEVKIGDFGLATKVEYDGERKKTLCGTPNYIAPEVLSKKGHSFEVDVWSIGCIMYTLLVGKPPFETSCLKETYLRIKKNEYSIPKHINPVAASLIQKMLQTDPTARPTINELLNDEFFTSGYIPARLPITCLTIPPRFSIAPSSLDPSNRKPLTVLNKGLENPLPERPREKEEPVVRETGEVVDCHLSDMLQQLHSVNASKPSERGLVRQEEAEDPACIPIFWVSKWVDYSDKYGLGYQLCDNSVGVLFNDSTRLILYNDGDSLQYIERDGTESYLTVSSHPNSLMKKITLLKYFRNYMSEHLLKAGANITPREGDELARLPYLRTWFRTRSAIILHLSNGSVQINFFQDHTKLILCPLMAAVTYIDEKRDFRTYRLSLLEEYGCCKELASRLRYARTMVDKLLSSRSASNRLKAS
Method: as §1, §2

[12] = target: T3, MST2 (Homo sapiens, UniProt Q13188); conditions: read-out: residual activity (%) MST2
T3 sequence (Q13188 1-491): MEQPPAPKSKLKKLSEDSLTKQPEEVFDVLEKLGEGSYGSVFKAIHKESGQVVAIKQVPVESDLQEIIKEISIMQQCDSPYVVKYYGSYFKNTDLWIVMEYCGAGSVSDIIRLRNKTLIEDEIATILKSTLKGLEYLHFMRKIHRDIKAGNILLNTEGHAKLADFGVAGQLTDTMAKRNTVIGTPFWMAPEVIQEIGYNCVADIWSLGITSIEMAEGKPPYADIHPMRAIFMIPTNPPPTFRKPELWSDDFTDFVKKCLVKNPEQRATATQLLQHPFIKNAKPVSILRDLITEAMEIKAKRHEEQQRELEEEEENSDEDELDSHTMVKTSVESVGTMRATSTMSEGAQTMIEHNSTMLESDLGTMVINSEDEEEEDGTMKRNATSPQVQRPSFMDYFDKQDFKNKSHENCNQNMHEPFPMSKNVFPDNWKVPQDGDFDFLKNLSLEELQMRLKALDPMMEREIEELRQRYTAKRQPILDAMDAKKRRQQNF
Method: as §1, §2

## N=C(N)NCCC[C@@H](NC(=O)[C@@H](CCCNC(=N)N)NC(=O)[C@@H](CCCNC(=N)N)NC(=O)[C@@H](CCCNC(=N)N)NC(=O)[C@@H](CCCNC(=N)N)NC(=O)[C@@H](CCCNC(=N)N)NC(=O)CCCCCNC(=O)[C@H]1O[C@@H](n2cnc3c(N)ncnc32)[C@H](O)[C@@H]1O)C(N)=O [Compound 5, AdcAhx(D-Arg)6-NH2]
[1]
  remaining activity at 1 µM: 89%
[2]
  remaining activity at 1 µM: 77%
[3]
  remaining activity at 1 µM: 48%
[4]
  remaining activity at 1 µM: 99%
[5]
  remaining activity at 1 µM: 56%
[6]
  remaining activity at 1 µM: 2%
[7]
  remaining activity at 1 µM: 84%
[8]
  remaining activity at 1 µM: 94%
[9]
  remaining activity at 1 µM: 38%
[10]
  remaining activity at 1 µM: 3%
[11]
  remaining activity at 1 µM: 81%
[12]
  remaining activity at 1 µM: 77%

## N=C(N)NCCC[C@@H](NC(=O)[C@@H](CCCNC(=N)N)NC(=O)[C@@H](CCCNC(=N)N)NC(=O)[C@@H](CCCNC(=N)N)NC(=O)[C@@H](CCCNC(=N)N)NC(=O)[C@@H](CCCNC(=N)N)NC(=O)CCCCCNCCNS(=O)(=O)c1cccc2cnccc12)C(N)=O [Compound 26, H9-Hex(D-Arg)6-NH2]
[1]; inhibitor 1 μM, ATP 20 μM
  remaining activity at 1 µM: 97%
[2]; inhibitor 1 μM, ATP 5 μM
  remaining activity at 1 µM: 84%
[3]; inhibitor 1 μM, ATP 20 μM
  remaining activity at 1 µM: 70%
[4]; inhibitor 1 μM, ATP 50 μM
  remaining activity at 1 µM: 31%
[5]; inhibitor 1 μM, ATP 5 μM
  remaining activity at 1 µM: 94%
[6]; inhibitor 1 μM, ATP 5 μM
  remaining activity at 1 µM: 2%
[7]; inhibitor 1 μM, ATP 50 μM
  remaining activity at 1 µM: 88%
[8]; inhibitor 1 μM, ATP 5 μM
  remaining activity at 1 µM: 87%
[9]; inhibitor 1 μM, ATP 5 μM
  remaining activity at 1 µM: < 10%
[10]; inhibitor 1 μM, ATP 50 μM
  remaining activity at 1 µM: 3%
[11]; inhibitor 1 μM, ATP 5 μM
  remaining activity at 1 µM: 76%
[12]; inhibitor 1 μM, ATP 20 μM
  remaining activity at 1 µM: 24%
